Assay results reported in publication PMC3068226 (Biochemistry, 2011).

Legend:
BSA [1] = target: T1, BSA (Bos taurus, UniProt P02769); assay: Binding to BSA by fluorescence quenching of albumin tryptophan; details: double logarithmic plot (Eq. 6), less than 1 mol/mol dye to albumin
BSA [2] = target: T1, BSA
[3] = type: in vivo, mouse; details: for change in kurtosis over time after injection: mouse ear, LS224 over 6 h, LS296 within 3 h

T1 sequence (P02769 25-607): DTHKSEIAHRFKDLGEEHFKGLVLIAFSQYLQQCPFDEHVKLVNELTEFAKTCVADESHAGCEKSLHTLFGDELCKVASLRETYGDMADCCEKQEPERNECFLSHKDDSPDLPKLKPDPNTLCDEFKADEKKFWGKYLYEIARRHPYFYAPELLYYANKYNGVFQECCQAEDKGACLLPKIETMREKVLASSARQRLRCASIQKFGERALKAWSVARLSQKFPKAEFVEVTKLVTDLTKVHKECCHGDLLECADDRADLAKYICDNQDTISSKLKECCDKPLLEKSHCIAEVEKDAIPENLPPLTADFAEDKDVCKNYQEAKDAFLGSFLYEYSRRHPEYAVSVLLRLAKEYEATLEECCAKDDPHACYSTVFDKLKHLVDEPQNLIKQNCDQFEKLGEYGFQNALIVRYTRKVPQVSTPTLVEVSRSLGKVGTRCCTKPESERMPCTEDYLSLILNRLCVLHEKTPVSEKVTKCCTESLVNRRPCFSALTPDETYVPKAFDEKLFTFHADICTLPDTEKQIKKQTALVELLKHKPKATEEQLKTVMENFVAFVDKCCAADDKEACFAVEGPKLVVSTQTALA

Molecule: CC1(C)C(/C=C/C=C/C=C/C=C2\N(CCCCS(=O)(=O)O)c3ccc4ccccc4c3C2(C)C)=[N+](CCCCS(=O)(=O)[O-])c2ccc3ccccc3c21 [ICG, indocyanine green]
- number of binding sites n on albumin (BSA [1]): 1.012 ± 0.0212

Molecule: Cypate-DPhe-Cyclo(Cys-Tyr-DTrp-Lys-Thr-Cys)-Thr-OH (disulfide) [LS224]
- K, M^−1 (binding constants to BSA in PBS buffer) (BSA [2]): 51,000 M^−1
- change in kurtosis over time after injection ([3]; ex/em 780/800 nm): no changes in kurtosis

Molecule: Cypate-Gly-Arg-Asp-Ser-Pro-Lys-OH [LS39]
- K, M^−1 (binding constants to BSA in PBS buffer) (BSA [2]): 76,000 M^−1

Molecule: LS276-DPhe-Cyclo(Cys-Tyr-DTrp-Lys-Thr- Cys)-Thr-OH (disulfide) [LS296]
- K, M^−1 (binding constants to BSA in PBS buffer) (BSA [2]): 14,880 M^−1
- change in kurtosis over time after injection ([3]; ex/em 780/800 nm): dramatic changes

Molecule: CC1(C)C(=CC=C2CCCC(C=CC3=[N+](CCCCCC(=O)[O-])c4ccc(S(=O)(=O)[O-])cc4C3(C)C)=C2Oc2ccc(S(=O)(=O)[O-])cc2)N(CCCCS(=O)(=O)[O-])c2ccc(S(=O)(=O)[O-])cc21.[Na+].[Na+].[Na+].[Na+] [IRdye800CW, reference compound]
- binding constant K to BSA (BSA [2]): ~6,100 M^−1
- initial kurtosis value at the first time point ([3]; mouse ear ROI, 2 min after injection): less than 1
- time of peak fluorescence intensity in ROI after injection ([3]; mouse ear ROI, intravenous injection, ex/em 780/800 nm): 20 to 30 min
